Assay results taken from PMC7367873, “Dissecting the sequence determinants for dephosphorylation by the catalytic subunits of phosphatases PP1 and PP2A” (Nature Communications, 2020).

Target: T1, PP2Ac (Homo sapiens, UniProt P67775)
T1 construct: purchased Cayman Chemical 10011237
Test: Phosphopeptide library dephosphorylation followed by mass spectrometry (PLDMS), PP2Ac
Assay type: biochemical
Conditions: all libraries, 25 nM PP2Ac, 100 µM library, 4 min, 25 °C, pH 7.5; library distribution 60% Ser to 40% Thr
From the text: In order to determine phosphatase specificity on the phosphopeptide level, we developed an in vitro phosphopeptide library dephosphorylation followed by mass spectrometry approach (PLDMS, Fig. 1a; see the methods for details). In this approach, phosphopeptide libraries would be treated with PP1, PP2A, or left untreated, purified, and analyzed by LC-MS/MS measurements. In the first step, design, synthesis, and validation of phosphopeptide libraries were required. The phosphopeptide libraries were designed to yield an even distribution of amino acids in the different randomized positions and to give high coupling efficiency during synthesis, thus reducing the number of by-products. […]
The individual libraries were incubated with recombinant PP1c or PP2Ac (Supplementary Fig. 1a) and the reaction was stopped by shifting the pH from 7.5 to 3 when 30–50% of the library was dephosphorylated, depending on phosphatase activity (see the methods for details, Supplementary Fig. 1b). Peptides were then separated from the recombinant protein by size-exclusion chromatography (SEC) (Supplementary Fig. 1c) and analyzed by LC-MS/MS (Fig. 1a). […]
For LC-MS analysis, the treated/ctrl peptide libraries were purified by SEC. […] A 0.1 M ammonium acetate buffer (pH 5) was used throughout the column equilibration and purification and the elution profile was recorded at 280 nm. […]

T1 sequence (P67775 1-308 limits assumed): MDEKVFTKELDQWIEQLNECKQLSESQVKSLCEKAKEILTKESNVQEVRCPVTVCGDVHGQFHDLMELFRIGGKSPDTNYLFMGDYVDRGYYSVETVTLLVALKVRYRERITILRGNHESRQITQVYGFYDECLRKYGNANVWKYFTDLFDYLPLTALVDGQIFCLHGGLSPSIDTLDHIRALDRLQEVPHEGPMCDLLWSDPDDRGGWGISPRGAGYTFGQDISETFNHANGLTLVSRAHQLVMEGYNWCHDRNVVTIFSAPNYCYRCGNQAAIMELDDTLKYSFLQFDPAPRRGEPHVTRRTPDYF

- pThr share of all sites dephosphorylated by PP2Ac: 83%
Substance: PP2Ac: His-tagged recombinant PPP2CA ΔL309, purchased from Cayman Chemical
